Laboratory results taken from patent US20220268787A1 (JW BIOSCIENCE, published 2022).

Assays:
Test in all cases: indirect ELISA, antigen coated at 1 µg/ml
[1] = target: T1, CRS (cysteinyl-tRNA synthetase) (UniProt P49589 1-748, limits assumed)
T1 sequence (looked up): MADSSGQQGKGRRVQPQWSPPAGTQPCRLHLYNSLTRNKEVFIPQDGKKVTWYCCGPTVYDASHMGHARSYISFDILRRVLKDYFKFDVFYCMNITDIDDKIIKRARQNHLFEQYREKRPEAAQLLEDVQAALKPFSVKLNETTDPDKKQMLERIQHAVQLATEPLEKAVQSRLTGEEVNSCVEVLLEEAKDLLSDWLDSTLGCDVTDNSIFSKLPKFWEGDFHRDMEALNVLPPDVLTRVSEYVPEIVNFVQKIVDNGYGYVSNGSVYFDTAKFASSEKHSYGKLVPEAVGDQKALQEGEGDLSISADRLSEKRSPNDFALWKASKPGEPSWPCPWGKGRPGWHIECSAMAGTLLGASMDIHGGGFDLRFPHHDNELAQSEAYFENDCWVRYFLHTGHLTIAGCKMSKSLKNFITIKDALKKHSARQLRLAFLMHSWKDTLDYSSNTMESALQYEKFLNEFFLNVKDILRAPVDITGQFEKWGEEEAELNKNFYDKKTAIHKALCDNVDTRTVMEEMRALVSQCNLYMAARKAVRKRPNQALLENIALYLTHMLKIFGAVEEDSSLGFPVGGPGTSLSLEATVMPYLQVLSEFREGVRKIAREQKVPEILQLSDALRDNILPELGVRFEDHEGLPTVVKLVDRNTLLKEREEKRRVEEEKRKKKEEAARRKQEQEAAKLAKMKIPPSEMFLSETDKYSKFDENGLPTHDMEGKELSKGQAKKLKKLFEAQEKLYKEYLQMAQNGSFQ

[2] = target: T2, AIMP1 (aminoacyl tRNA synthase complex-interacting multifunctional protein 1) (UniProt Q12904 1-312, limits assumed)
T2 construct: also called p43
T2 sequence (looked up): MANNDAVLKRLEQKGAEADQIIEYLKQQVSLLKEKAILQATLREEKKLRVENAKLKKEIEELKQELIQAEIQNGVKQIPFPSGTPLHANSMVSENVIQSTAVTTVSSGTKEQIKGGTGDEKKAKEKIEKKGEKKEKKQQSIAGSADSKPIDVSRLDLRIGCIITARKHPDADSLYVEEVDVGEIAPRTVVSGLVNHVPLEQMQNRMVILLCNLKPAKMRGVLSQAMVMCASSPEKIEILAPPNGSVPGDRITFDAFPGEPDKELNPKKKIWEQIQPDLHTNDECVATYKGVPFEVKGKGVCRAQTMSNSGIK

[3] = target: T3, GRS (glycyl tRNA synthetase) (UniProt P41250 55-739, limits assumed)
T3 sequence (looked up): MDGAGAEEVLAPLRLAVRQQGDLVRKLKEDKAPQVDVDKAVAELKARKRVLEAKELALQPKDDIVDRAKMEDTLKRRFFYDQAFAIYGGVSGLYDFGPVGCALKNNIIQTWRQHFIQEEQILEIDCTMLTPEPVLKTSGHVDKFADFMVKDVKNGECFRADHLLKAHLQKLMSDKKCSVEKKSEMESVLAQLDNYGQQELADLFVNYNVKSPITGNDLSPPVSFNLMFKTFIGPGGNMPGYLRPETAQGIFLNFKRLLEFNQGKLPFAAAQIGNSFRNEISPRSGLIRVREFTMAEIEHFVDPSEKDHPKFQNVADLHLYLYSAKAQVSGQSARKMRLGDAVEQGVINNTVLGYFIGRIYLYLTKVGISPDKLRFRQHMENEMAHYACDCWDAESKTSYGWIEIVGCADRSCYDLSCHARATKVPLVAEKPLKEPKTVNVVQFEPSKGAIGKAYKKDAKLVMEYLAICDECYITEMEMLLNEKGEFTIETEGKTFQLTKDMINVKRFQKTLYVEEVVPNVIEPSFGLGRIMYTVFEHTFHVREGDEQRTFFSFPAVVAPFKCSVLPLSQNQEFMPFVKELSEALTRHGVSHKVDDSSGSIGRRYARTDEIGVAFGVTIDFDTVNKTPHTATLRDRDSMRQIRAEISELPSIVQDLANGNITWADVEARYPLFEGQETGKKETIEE

[4] = target: KRS (lysyl tRNA synthetase) (UniProt Q15046 1-597, limits assumed)

Measured: binding result

Sequence of KRS (lysyl tRNA synthetase) (Q15046 whole entry): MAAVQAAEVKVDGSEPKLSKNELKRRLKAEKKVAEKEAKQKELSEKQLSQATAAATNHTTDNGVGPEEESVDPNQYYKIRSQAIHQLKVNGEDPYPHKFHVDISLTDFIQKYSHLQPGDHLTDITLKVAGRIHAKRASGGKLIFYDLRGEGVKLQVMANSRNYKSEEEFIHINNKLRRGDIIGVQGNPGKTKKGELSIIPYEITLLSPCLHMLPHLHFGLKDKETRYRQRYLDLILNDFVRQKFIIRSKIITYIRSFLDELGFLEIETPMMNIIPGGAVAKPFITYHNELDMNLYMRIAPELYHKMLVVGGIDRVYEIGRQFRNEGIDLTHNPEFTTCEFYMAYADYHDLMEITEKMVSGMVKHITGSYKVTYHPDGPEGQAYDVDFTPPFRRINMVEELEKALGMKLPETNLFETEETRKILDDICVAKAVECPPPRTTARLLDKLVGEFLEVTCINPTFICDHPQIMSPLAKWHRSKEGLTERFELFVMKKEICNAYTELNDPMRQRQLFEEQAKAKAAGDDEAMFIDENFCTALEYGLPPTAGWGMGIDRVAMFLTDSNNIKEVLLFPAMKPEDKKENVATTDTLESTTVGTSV

B1: 4D10G6 monoclonal antibody (antibody, V domains shown)
VH: EFQLQQSGPELVKPGASVKISCKASGYAFIDYNMNWVKQSNGKSLEWIGVINPNYGTIRYNQKFKGKATLTVDQSSSTAYMQLNSLTSEDSAVYYCAGLLRGYYAMDYWGQGTSVTVSS
VL: QAVVTQESALTTSPGETVTLTCRSSTGAVTTSNYANWVQEKPDHLFTGLIGGTNNRAPGVPARFSGSLIGDKAALTITGAQTEDEAIYFCVLWYSNHWVFGGGTKLTVL
notes: Mouse hybridoma monoclonal (Balb/c), purified from ascites on Protein A or G beads; also called the antibody according to the present invention
no binding (tested: 500 ng/ml): all assays above
